Columns and labels:
[1] = molecular target: T1, 血清标本中的AFP抗原 (UniProt P02771 19-609); test: Double-antibody sandwich chemiluminescence immunoassay, detection antibody
T1 construct: AFP in serum samples, detected by the double-antibody sandwich assay; also called 质控血清AFP; 标准血清中的AFP
T1 sequence (looked up): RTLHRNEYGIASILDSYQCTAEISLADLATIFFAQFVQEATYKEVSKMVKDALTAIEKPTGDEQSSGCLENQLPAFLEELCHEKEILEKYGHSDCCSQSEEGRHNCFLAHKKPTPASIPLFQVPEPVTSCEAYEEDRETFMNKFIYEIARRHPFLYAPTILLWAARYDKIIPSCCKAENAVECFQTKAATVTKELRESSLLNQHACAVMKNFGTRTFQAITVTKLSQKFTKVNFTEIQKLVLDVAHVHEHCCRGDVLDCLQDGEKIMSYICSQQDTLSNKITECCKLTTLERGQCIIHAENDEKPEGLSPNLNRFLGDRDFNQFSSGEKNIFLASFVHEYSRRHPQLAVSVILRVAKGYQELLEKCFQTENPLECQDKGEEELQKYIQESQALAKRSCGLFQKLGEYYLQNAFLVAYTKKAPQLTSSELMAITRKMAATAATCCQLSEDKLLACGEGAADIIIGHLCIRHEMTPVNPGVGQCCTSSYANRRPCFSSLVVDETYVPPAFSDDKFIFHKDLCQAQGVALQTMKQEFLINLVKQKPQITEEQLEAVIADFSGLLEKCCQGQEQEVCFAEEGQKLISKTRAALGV

[2] = molecular target: T2, 重组AFP抗原 (甲胎蛋白, α-fetoprotein) (UniProt P02771 19-609, limits assumed); test: Biacore sequential injection on immobilised antigen
T2 construct: Bought recombinant antigen used to immunise the alpaca
T2 sequence (looked up): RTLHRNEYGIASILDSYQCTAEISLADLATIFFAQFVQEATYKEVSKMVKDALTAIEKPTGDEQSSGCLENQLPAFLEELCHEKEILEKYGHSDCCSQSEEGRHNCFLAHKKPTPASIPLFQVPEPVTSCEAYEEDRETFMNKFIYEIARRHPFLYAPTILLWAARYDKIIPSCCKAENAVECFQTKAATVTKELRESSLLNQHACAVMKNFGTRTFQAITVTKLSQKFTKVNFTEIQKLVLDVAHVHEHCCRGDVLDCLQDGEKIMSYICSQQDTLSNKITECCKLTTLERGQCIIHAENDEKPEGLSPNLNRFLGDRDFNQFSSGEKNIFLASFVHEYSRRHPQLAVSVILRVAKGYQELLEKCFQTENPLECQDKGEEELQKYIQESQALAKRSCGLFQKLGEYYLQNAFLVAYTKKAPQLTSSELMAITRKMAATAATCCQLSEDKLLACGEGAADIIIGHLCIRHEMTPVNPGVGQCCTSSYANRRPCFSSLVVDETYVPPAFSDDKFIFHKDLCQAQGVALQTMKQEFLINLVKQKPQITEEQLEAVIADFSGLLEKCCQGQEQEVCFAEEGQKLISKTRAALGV

B1: 带有化学发光区序列的纳米抗体1C5-HAP (other)
chain: QVQLQESGGGLVQAGGSLRLSCKASERTFSSYSMAWYRQAPGKKREFVASISWDDERTYYTDSVKGRFTISRPNAKNTVYLQMNSLKPEDTAVYYCAVGGLSDGLGPSYDYWGQGTQVTVSSGGGGSGGGGSGGGGSIIPVEEENPDFWNREAAEALGAAKKLQPAQTAAKNLIIFLGDGMGVSTVTAARILKGQKKDKLGPEIPLAMDRFPYVALSKTYNVDKHVPDSGATATAYLCGVKGNFQTIGLSAAARFNQCNTTRGNEVISVMNRAKKAGKSVGVVTTTRVQHASPAGTYAHTVNRNWYSDADVPASARQEGCQDIATQLISNMDIDVILGGGRKYMFRMGTPDPEYPDDYSQGGTRLDGKNLVQEWLAKRQGARYVWNRTELMQASLDPSVTHLMGLFEPGDMKYEIHRDSTLDPSLMEMTEAALRLLSRNPRGFFLFVEGGRIDHGHHESRAYRALTETIMFDDAIERAGQLTSEEDTLSLVTADHSHVFSFGGYPLRGSSIFGLAPGKARDRKAYTVLLYGNGPGYVLKDGARPDVTESESGSPEYRQQSAVPLDEETHAGEDVAVFARGPQAHLVHGVQEQTFIAHVMAFAACLEPYTACDLAPPAGTTD
notes: Expressed in 293 cells
B1: binds [1].

B2: 纳米抗体1C5 (VHH)
VHH: QVQLQESGGGLVQAGGSLRLSCKASERTFSSYSMAWYRQAPGKKREFVASISWDDERTYYTDSVKGRFTISRPNAKNTVYLQMNSLKPEDTAVYYCAVGGLSDGLGPSYDYWGQGTQVTVSS
B2: binds [2].

Source: CN113214399A (SHENZHEN INNOVA NANOBODI CO LTD, dated 2021)
